Results on 23 sequences are retold here after the DeepSol protein solubility set.

The data set can be described thus: soluble on expression in E. coli; label from the status in PepcDB or PDB records.
Take “MSKELFLEIGTEEIPAGFLPKAMADMEAIVTKELENARLAFGEVKTFATPRRLALVVKGLPTVQPDAEITALGPARNIAFGPDGTPSKAAEGFARGQGVDVASLTLVSTEKGEYVAAVRKESGRPVPDLLAEILPRLVGGIPFRKSMRWADLDVRFARPIHWIVALFDGVVVPFAFGNVQSGNVSRGHRFMANQPFPVRDFAHYLDECERHFVIPDPERRKETIRREIHRVAKTAGGHLLPDEGLLDEVAYLVEYPSVVHGTFSPDFLKVPREVLITSMRSHQRYFSIVDDAGKLMPGFITINNTLTEDPSVVVKGNERVLRARLSDARFFFEEDQKVKLETRVESLKNVVYQQKLGTSYEKMERFRALAEGLADLLNPAVKAKTSRAAFLCKADLVSGMVGEFPEVQGIMGREYALLQGEDAEVAAAIAEHYLPTQAGGDLPASDIGAFVSIADKLDTICGCFGVGLIPTGSADPYALRRSALGIINIILDRGCRLSLEGEIGKALELLSAKLTRPAAEVMADVLEFFRGRFVNLMADRYPADAVDAAIAAGFDD”: the “soluble on expression in E. coli” value was “not soluble”.

For “MALLPAVRRYGRLTRATGLVLEATGLQLPLGATCIIERQDGPETKEVESEVVGFNGQRLFLMPLEEVEGILPGARVYARNGHGDGLQSGKQLPLGPALLGRVLDGGGKPLDGLPAPDTLETGALITPPFNPLQRTPIEHVLDTGVRAINALLTVGRGQRMGLFAGSGVGKSVLLGMMARYTRADVIVVGLIGERGREVKDFIENILGPDGRARSVVIAAPADVSPLLRMQGAAYATRIAEDFRDRGQHVLLIMDSLTRYAMAQREIALAIGEPPATKGYPPSVFAKLPALVERAGNGIHGGGSITAFYTVLTEGDDQQDPIADSARAILDGHIVLSRRLAEAGHYPAIDIEASISRAMTALITEQHYARVRLFKQLLSSFQRNRDLVSVGAYAKGSDPMLDKAITLWPQLEAFLQQGIFERADWEDSLQALDLIFPTV”, the “soluble on expression in E. coli” value is “soluble”.

For the sequence “MSLGMDEKSVAIVFPHHLLEDHPAAGKTSGFILVEDQLFFGDPVFGLRFHKNKLVLHRASMRYYHDHLKSRGLKAEYIQYSPDPHMGYLRDHLEGYDRVYTLELLDHELEARMKKLSMELGLEITEIEAPFIFRRNLMDGYFRDGRFLLRSFYIRERKRLSILMENSRPAGGKWTFDTENRKRMPPDLQVPAPVKLPENEYVQEAKEYVSEKFPDNPGSMDRFNYPEGHHHHHH”, the “soluble on expression in E. coli” value is “soluble”.

“GFVKEPFFTRLIDLESPFEEEFDKNVRYEIKRAQKESLLFSWGEGVPRFVKFFNAFAQSKGLSLLNEAELSYMGEHLRLTEIRANGEPLVMHSYLLDHSIKRVRLLHSASLFRLSQEKDFRALVGRANRLLHFLDMERFKEEGFKIYDFGGVSHSQDPALLGINRFKEGFGGRE”: the “soluble on expression in E. coli” value was “not soluble”.

Take “MKKIGFIGLGNMGLPMSKNLVKSGYTVYGVDLNKEAEASFEKEGGIIGLSISKLAETCDVVFTSLPSPRAVEAVYFGAEGLFENGHSNVVFIDTSTVSPQLNKQLEEAAKEKKVDFLAAPVSGGVIGAENRTLTFMVGGSKDVYEKTESIMGVLGANIFHVSEQIDSGTTVKLINNLLIGFYTAGVSEALTLAKKNNMDLDKMFDILNVSYGQSRIYERNYKSFIAPENYEPGFTVNLLKKDLGFAVDLAKESELHLPVSEMLLNVYDEASQAGYGENDMAALYKKVSEQLISNQK”: the “soluble on expression in E. coli” value was “soluble”.

“MGVVLIDGSTVRSFVDDEEQFKKSVDERFAALDLNKDGVLSRSELRKAFESMRLLESHFGVDVVTPQDELTNLYDSIFEKFDTDQSGSVDLEEFRSEMKKIVLAIADGLGSCPITMVLDDDDDNFLKKAADLEASKLEKASS”: the “soluble on expression in E. coli” value is on record as “soluble”.

With “MGSDKIHHHHHHMIPTIRLHSQQLINPVFNNPKDLVSWMGGIQAQDYTMSKWAIGIRLKAGNLQTVNEALAKGDILRIHVMRPTWHYVAAEDIRWMLKLSSRRIITANDSFAKSRGQDISVDIYNKANRLLEKALAGHNHLTKQEIDNIFKEGGLETNERLSNRFLIHAEAEGLICSGADKNNKITFALLDERVPPIQELHKEEALAILARKYFRSHSPASLKDFVWWSGLSVTEARQGIAAIEQELLTDRFLAQKLYVHQSYKEEKTTDILHILPSYDEYLISYKDRTDVLNKEYQHKAFNSFGIFRPVILYNGQIVGNWNKVIQKQTTHIEMNWFKKNTKIKRELLSLAERKYLTFFSEL”, the “soluble on expression in E. coli” value is on record as “not soluble”.

As to “MAVAALKALLPPERLRRLTPLGGFEARVYTDGERVYKVYRKEEAHLAGLEARRMARAGFGSLVLAVIQGAEGGVLVTRRFPGRPFAPEAFTSKTLAALSHLFLALHRLPEPGKVTQEELLSRLERFAESLHDQPEALSLVQALKREVGLAAGVERRFCHRDAWAGNLLLKAPEAEGPEVFLVDWARAGGDDPARDLALLKTGSLDLLGEEAARAALFRMARLYPKEVRERLAFYVPLTYLHDLHWFRTKEPQGFPQALEEKLPKALAFFRDFFPRRGAW”, the “soluble on expression in E. coli” value is listed as “soluble”.

Consider “MKPTKARLRNHVITLKNSVEKEIRAKKTKAIRAHIESEWLKIDPEFEKLHRYFSSLRIRQNVKNELVDLLEENSLEIWSFYRDTDARDFETYKKGFLEKLKYNSIKGLAKVEAVYDQEIQEVRETYNAIIANVERVPAKQGVAYLEELGINVDVFKEEEAQLPMIAVDKSKLRLPSETADSK”, for which the “soluble on expression in E. coli” value was “not soluble”.

In the case of “MGSDKIHHHHHHMELEKIRKLYEKVDPSQLTEREKLLTELIFTDRKLKTDKLPNGRYRILQFSGNNFEELENTLKLLLPDFVKSIGEEKIVIEAFSTDSPTNSELFDIFQTLSQDMGEEVTAYVGRFVEKNKLSEVYSEEYKIFESQQTFSEYILSESLNLSENRILQEIRKELLENPEDQKLVEAMYKASSNQTKAAKILYVHRNTLINKIKKYEQKYGLQLSGSDLTLAYNLL”, the “soluble on expression in E. coli” value is “not soluble”.

With “MNRARDWLEQARHNLRHAQGSLGLGDYAWACFAAQQAAEAALKGLHLARGQVAWGHSILDLLADLPEDVDVPEDLVEAAKVLDKYYIPTRYPDAHPAGPAARHYTRLEAEEALDLAQKILAFVEEKL”, the “soluble on expression in E. coli” value is “soluble”.

For “MGSDKIHHHHHHMETFGGQVGRQEVPESSIDRYRGKLPNQLLTYWAEHGWCGYGDGIFWTVNPQEYDAVVASWLEGTKFETFDAYHLIARSAFGDLYLWGEEIGASLKITSILSRYTTHKSLCLGSQMDKGLQSFILSRKVGSNDYGDLFRPARKKLGTLHHDEMYGFVPALMLGGADTLDHLEKVKAVEHLVLLSQLSDLESYDFQDL”, the “soluble on expression in E. coli” value is “not soluble”.

Regarding “MAHHHHHHMKCQKIRRDIFIYMLYNFSFCAGKKEDKDKGKDKDKEKKKLESVPISHMGKKKKKNKGTSGHSKLPNVTPNTKCRLKLLKLERIKDYLLLEEEYITNQEQIKSSDDKNYVKLKIDDLRGSPVSVGTLEELIDENHGIIATSVGPEYYVNILSFVDKDLLEPGCSVLLNNKTNSVVGILLDEVDPLVSVMKVEKAPLESYADIGGLESQIQEIKEAVELPLTHPELYEDIGIKPPKGVILYGPPGTGKTLLAKAVANETSATFLRVVGSELIQKYLGDGPKLVREMFKVAEEHAPSIVFIDEIDAVGTKRYEATSGGEREIQRTMLELLNQLDGFDSRGDVKVIMATNRIDSLDPALIRPGRIDRKIQLPNPDTKTKRRIFQIHTSKMTMSPDVDLEEFVMSKDELSGADIKAICTEAGLLALRERRMKITQADLRKARDKALFQKKGNIPEGLYL”, the “soluble on expression in E. coli” value is on record as “not soluble”.

For “MTDYLNVGKIVNTQGIKGEVRVISKTDFPEERYQKGAMLLLFQEKKAPIELVVKSHRKHKNFDILSFEGHPNINDVEKYRDGILKVAKDNLAELAEDEFYYHQIIGATVYDETGSELGKIKEILSPGANDVWVVQRPKKKDLLLPYIEGVVTKVDVENQRIDVDIPEGLIDDENLEHHHHHH”, the “soluble on expression in E. coli” value is “soluble”.

In the case of “MTRDDDDDEDDEEEEDSGAWGRESYAFDGFHPTEEFGFSFSPRGGMRFHGNFGFDDLVRDFNSIFSEMGAWTLPSHSPELPGPESETPGVRLREGQTLRDSMLKYPDSHQPRIFEGVLESHAKPESSKPAPDWGSQGPFHRLDDTWPVSPHSRAREDKDLDSQVSQEGLGPLLQPQPKSYFKSISVTKITKPDGTVEEHRTVVDGEGRRETTVTHQEAHDSSRSDPDPPRSSALDDPFSILDLLLGRWFRSR”, the “soluble on expression in E. coli” value is given as “not soluble”.

For the sequence “MNCVCGSGKTYDDCCGPLLARTRSAASPEALMRSRYAAYALKDFDYIVETTDPERRDLFDHDVNRAWMEESDFLELRVLGSSEKGSRGTVEFIARFRRGGGPEQSHHERSQFRKARGRWYFSEGEAVD”, the “soluble on expression in E. coli” value is “soluble”.

With “LTPIVGPSNFRVQVAADMDFSQVEETREILDNAPVVRNEHTIQNNSIDQIALGVPGSLSNQPPVTGEAATNDSQNTNARSEVNRQYAVGSSVRRTQYQQGQIEKLSVSVLLNSKASPDGVAWSDADKAQISTMITDAVGISAARGDSLSLMSFNF”, the “soluble on expression in E. coli” value is reported as “not soluble”.

Take “MGSDKIHHHHHHMSKAKELTPEQFRKMQLTELDMLVEFDKVCRKHNINYVLFGGSLLGAVRHKGYIPWDDDADIGMLREDYDTFKKYASEMNSEICYFQDHDTDPEYRWGYGKLRRTNTIYVRVGQEHLKNKTGIFVDVFPMDDVPLSTLGQIVQDRKVYCLRKILWSEVARVQSTGFMKLWYSVLAKIPVEWVFSRLNKYAVKSKNITPNRVRCLSFPATGTLYKKNSLKTRYSMPKSWFTNRAEYLFEGRLLYSSKEYDEVLKYIYGKYMELPPKDKREQHSPFSKIKFQDEEMIV”: the “soluble on expression in E. coli” value is “not soluble”.

“MGHHHHHHSHSTKDRKIIPLKMCFAARNLSMPDLENRLIELHSPDSRNTLILRCKDTATAHSWFVAIHTNIMALLPQVLAELNAMLGATSTAGGSKEVKHIAWLAEQAKLDGGRQQWRPVLMAVTEKDLLLYDCMPWTRDAWASPCHSYPLVATRLVHSGSGCRSPSLGSDLTFATRTGSRQGIEMHLFRVETHRDLSSWTRILVQGCHAAAEL”: the “soluble on expression in E. coli” value is “not soluble”.

On to “MGSRDDEYDYLFKVVLIGDSGVGKSNLLSRFTRNEFNLESKSTIGVEFATRSISVEGKTVKAQIWDTAGQERYRAITSAYYRGAVGALLVYDIAKHVTYENVERWLKELRDHADQNIVIMLVGNKSDLRHLRAVPTDEAKIYAERNQLSFIETSALDSTNVEAAFTNILTEIYKSVSNKHVGTDRQGYGGGSGTIIPSPASDPPKKQCCIP”, for which the “soluble on expression in E. coli” value is “not soluble”.

For “MHHHHHHSSGVDLGTENLYFQSMASSHLNKGIKQVYMSLPQGEKVQAMYIWIDGTGEGLRCKTRTLDSEPKCVEELPEWNFDGSSTLQSEGSNSDMYLVPAAMFRDPFRKDPNKLVLCEVFKYNRRPAETNLRHTCKRIMDMVSNQHPWFGMEQEYTLMGTDGHPFGWPSNGFPGPQGPYYCGVGADRAYGRDIVEAHYRACLYAGVKIAGTNAEVMPAQWEFQIGPCEGISMGDHLWVARFILHRVCEDFGVIATFDPKPIPGNWNGAGCHTNFSTKAMREENGLKYIEEAIEKLSKRHQYHIRAYDPKGGLDNARRLTGFHETSNINDFSAGVANRSASIRIPRTVGQEKKGYFEDRRPSANCDPFSVTEALIRTCLLNETG”, the “soluble on expression in E. coli” value is given as “soluble”.

As for “MGHHHHHHSHDGSLVHISISPYPAILHEYVSSSKWEDAVRLCRFVKEQTMWACLAAMAVANRDMTTAEIAYAAIGEIDKVQYINSIKNLPSKESKMAHILLFSGNIQEAEIVLLQAGLVYQAIQININLYNWERALELAVKYKTHVDTVLAYRQKFLETFGKQETNKRYLHYAEGLQIDWEKIKAKIEMEITKEREQSSSSQSSKSIGLKP”, the “soluble on expression in E. coli” value is reported as “not soluble”.

For “MAINLNTFAKVSADWYELKKSQPLAENTIKDIWRSLEKYVFPFIGTLPITQLTARHFISALEPIQASGKLETVKRVSQRINEVMDYAVNSGLIPANPAAKIRKAFQTPVKTHMLEHHHHHH”, the “soluble on expression in E. coli” value was “not soluble”.
